From article PMC4801485 (Biochemistry, 2015)
“Also recorded” adds a separate entry of the source. Where no end group is shown, it is not given here.

Legend:
CypA [1] = target: T1, CypA (Homo sapiens, UniProt P62937); experiment: 15N TROSY CPMG-RD of ligand-saturated CypA; type: biochemical
CypA [2] = target: T1, CypA; conditions: percent weaker than GSFGPDLRAGD; cited from earlier work
CypA [3] = target: T1, CypA; conditions: cited from earlier work
[4] = 2H,15N CypA, saturating TA-peptide (6 mM), 10 °C

T1 sequence (P62937 whole entry): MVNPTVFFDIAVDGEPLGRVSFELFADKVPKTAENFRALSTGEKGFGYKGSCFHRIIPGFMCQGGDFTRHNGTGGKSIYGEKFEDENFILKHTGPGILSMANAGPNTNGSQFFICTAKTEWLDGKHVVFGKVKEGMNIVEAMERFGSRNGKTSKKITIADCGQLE

## cyclosporine A [CsA, reference compound]
CypA [1]; 2H,15N CypA (0.5 mM), CsA 0.7 mM, 10 °C
  exchange throughout most of the active site (CsA): quenched by CsA throughout most of the active site; also recorded: completely quenched

## TA-peptide: substrate for which the G-P peptide bond in the peptide is replaced by a thioamide bond (GSFGPDLRAGD; also: G-P peptide bond replaced by thioamide bond)
CypA [1]; [4]
  chemical exchange rate throughout most of the active site: ~ 300 s^−1
  rate of motions, loop residues ~65–78 and ~108–110: ~ 2000 s^−1
CypA [1]; 2H,15N CypA, saturating TA-peptide, much of the active site
  active site dynamics as compared to CypA:peptide complex: slowed dramatically
CypA [2]
  binding relative to the standard GSFGPDLRAGD peptide (weaker): ~ 50%
CypA [3]
  isomerization by CypA: not isomerized by CypA
